This test addresses recombinant Hbl B’ of B. cereus strain F837/76 (Bacillus cereus strain F837/76). Briefly: SPR; Biacore S200; rHbl B’ amine-coupled (350 RU) on a CM5 chip; rHbl L1, L2 or B injected at 7.8125 nM to 2 µM, 30 µl/min, 20°C; running buffer PBS, 1 mM DTT, 0.005% Tween 20; 1:1 binding model; three experiments. (Surface plasmon resonance follows binding to a sensor surface in real time, without labels.)

With recombinant Hbl L1 (natural protein), the Kd – broadly, the equilibrium constant for the complex coming apart – turned out to be 131 nM.
